The test deals with T1, wild-type interferon regulatory factor 1 (wtIRF1) (human, UniProt P10914 1-325).
T1 sequence (looked up): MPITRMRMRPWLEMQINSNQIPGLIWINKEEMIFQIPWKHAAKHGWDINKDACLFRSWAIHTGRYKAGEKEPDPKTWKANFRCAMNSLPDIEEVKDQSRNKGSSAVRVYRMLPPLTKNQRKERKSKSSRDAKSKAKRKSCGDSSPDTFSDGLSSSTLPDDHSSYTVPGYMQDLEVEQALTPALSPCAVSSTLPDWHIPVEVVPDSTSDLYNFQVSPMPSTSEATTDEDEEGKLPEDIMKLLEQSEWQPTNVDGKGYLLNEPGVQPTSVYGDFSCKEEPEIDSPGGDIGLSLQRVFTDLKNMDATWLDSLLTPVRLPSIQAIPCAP
Put plainly: cell-based or functional assay.

B1: Ollas-tagged wild-type speckle type BTB/POZ protein (wtSPOP) (natural protein, UniProt O43791 1-374, looked up)
chain: MSRVPSPPPPAEMSSGPVAESWCYTQIKVVKFSYMWTINNFSFCREEMGEVIKSSTFSSGANDKLKWCLRVNPKGLDEESKDYLSLYLLLVSCPKSEVRAKFKFSILNAKGEETKAMESQRAYRFVQGKDWGFKKFIRRDFLLDEANGLLPDDKLTLFCEVSVVQDSVNISGQNTMNMVKVPECRLADELGGLWENSRFTDCCLCVAGQEFQAHKAILAARSPVFSAMFEHEMEESKKNRVEINDVEPEVFKEMMCFIYTGKAPNLDKMADDLLAAADKYALERLKVMCEDALCSNLSVENAAEILILADLHSADQLKTQAVDFINYHASDVLETSGWKSMVVSHPHLVAEAYRSLASAQCPFLGPPRKRLKQS
In the case of B1, the “fold decrease in IRF1-driven ISRE luciferase reporter activity in HEK-293T cells with SPOP co-expression (dual luciferase assay)” value is 11 fold.
